Results published in patent US20210002619.

Columns and labels:
[1] = system: Full-length histone H1
[2] = system: T1, Transactivation domain of FoxM1 (FoxM1 (526-748))
T1 sequence: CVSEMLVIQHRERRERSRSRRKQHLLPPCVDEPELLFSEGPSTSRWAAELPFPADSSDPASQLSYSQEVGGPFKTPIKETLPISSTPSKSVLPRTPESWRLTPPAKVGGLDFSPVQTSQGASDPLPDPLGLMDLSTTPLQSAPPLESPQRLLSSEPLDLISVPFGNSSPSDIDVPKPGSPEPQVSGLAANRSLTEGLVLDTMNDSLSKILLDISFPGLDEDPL

[3] = system: T2, C-terminal domain of the retinoblastoma protein (Rb (771-928))
T2 sequence: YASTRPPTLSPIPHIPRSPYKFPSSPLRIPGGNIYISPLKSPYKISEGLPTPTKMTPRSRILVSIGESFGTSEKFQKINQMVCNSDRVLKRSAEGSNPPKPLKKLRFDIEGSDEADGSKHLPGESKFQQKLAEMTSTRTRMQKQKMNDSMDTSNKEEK

Full-length histone H1, sequence (chain, as listed by the source): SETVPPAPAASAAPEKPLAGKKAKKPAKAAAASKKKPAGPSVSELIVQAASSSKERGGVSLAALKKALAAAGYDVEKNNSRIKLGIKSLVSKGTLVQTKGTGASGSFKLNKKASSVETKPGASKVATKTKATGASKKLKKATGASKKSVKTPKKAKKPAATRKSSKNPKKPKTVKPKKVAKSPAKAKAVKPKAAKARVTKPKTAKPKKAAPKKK

Row | Substance | phosphorylation activity (32P-ATP labeling of substrate) [1] | phosphorylation activity (32P-ATP labeling of substrate) [2] | phosphorylation activity (32P-ATP labeling of substrate) [3]
1 | Wild-type p27-Cdk4-CycD1 trimeric complex (v) with phosphorylated p27 (wild-type Cdk4) | had phosphorylation activity toward all substrates | had phosphorylation activity toward all substrates | had phosphorylation activity toward all substrates
2 | Wild-type p27-Cdk4-CycD1 trimeric complex (vi) with phosphorylated p27 (Cdk4 variant having T172E substitution) | had phosphorylation activity toward all substrates | had phosphorylation activity toward all substrates | had phosphorylation activity toward all substrates
